The supplement of paper PMC10201428
± gives the standard deviation of the averaged measurements.

Legend:
[1] = system: VchCAST RNA-guided transposition machinery (E. coli BL21(DE3) host, lacZ target); assay: relative integration efficiency (T-LR orientation) vs wild-type transposon end (log2 (normalized fold change)); transposon end mutated: right end (5 bp flank + 75 bp right end); higher = more efficient transposition
In short: (§1)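 Relative integration efficiency is a fold change of output over input barcode abundance, normalised to reference barcodes and log-transformed. Input plasmids and genomic integration junctions were PCR-amplified and Illumina-sequenced from E. coli BL21(DE3) co-transformed with a T7-driven effector plasmid and pUC57 donor pools of 1549 left-end or 1849 right-end transposon variants. Plating was done with 0.1 mM IPTG at 37°C for 18 h, with two biological output replicates and four reference barcodes.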

[2] = system: VchCAST RNA-guided transposition machinery (E. coli BL21(DE3) host, lacZ target); assay: relative integration efficiency (T-RL orientation) vs wild-type transposon end (log2 (normalized fold change)); transposon end mutated: right end (5 bp flank + 75 bp right end); higher = more efficient transposition
In short: as §1

Row | Sequence | relative integration efficiency (log2) [1] | relative integration efficiency (log2) [2]
1 | ACATTTGTTGATACAACCATAAAATGATAATTACACCCATAAATTGATAATTACCACTCCCAATTTAACTATAACGCTCTGATCATAGTCAGACCAACATTGCTACGACCCGTATTCGCACCGACAC | 2.61 ± 0.18 | -0.782 ± 0.24
2 | ACATTTGTTGATACAACCATAAATACTTAATTACACCCATAAATTGATAATTATCACACCCATAAATTGATATTGCCTCTGATCATAGTCAGACCAACATTGCTACGACCCGTATTCGCACCGACAC | -2.42 ± 0.21 | -2.25 ± 0.17
3 | ACATTTCTCGATACAACCATAAAATGATAATTACACCCATAAATTGATCATTATCACACCCAATTTAACTATAACGCTCTGATCATAGTCAGACCAACATTGCTACGACCCGTATTCGCACCGACAC | 1.36 ± 0.048 | -1.71 ± 0.54
4 | ACATTTGTTGATACACCCATAAATTGATAATTACACCCATAAATTGATAATTATCAGTGGGTATTTAACTATAACGCTCTGATCATAGTCAGACCAACATTGCTACGACCCGTATTCGCACCGACAC | 2.54 ± 0.063 | -0.394 ± 0.0092
5 | ACATTTGTTGATACAACCATTAAATGATAATTCCACCCATAACTTGATAATTATCACACCCAATTTAACTATAACGCTCTGATCATAGTCAGACCAACATTGCTACGACCCGTATTCGCACCGACAC | 1.93 ± 0.17 | -1.14 ± 0.15
6 | ACATTTGTTGATACAACCATAAATAGATAATTACACCCATAAATTGATAATTATCACACCCATAAATTGATATTGCCTCTGATCATAGTCAGACCAACATTGCTACGACCCGTATTCGCACCGACAC | -0.506 ± 0.44 | -0.642 ± 0.046
7 | ACATTAGTCGATACAACCATAAAATGATAATTACACCCATAAATTGATAATTATCACACCCAATTTAACTATAACGCTCTGATCATAGTCAGACCAACATTGCTACGACCCGTATTCGCACCGACAC | -5.9 ± 1.5 | -7.53 ± 1.2
8 | ACATTTGTTGATACAACCATATAATGATAATAACACCCCTAAAATGATAATTATCACACCCAATTTAACTATAACGCTCTGATCATAGTCAGACCAACATTGCTACGACCCGTATTCGCACCGACAC | 0.598 ± 0.1 | -2.99 ± 0.37
9 | ACATTTGTCGATACAACCCTAAAATGATAATTACACCCATAAATGGATAATTATCACACCCAATTTAACTATAACGCTCTGATCATAGTCAGACCAACATTGCTACGACCCGTATTCGCACCGACAC | -0.544 ± 0.14 | -3.17 ± 0.19
10 | ACATTTGTTGATACAACCATAAAATGATAATTACACCCATAAATTGATAATTATCACACGGATAAATTGATATTGCCTCTGATCATAGTCAGACCAACATTGCTACGACCCGTATTCGCACCGACAC | 1.28 ± 0.22 | -0.238 ± 0.062
11 | ACATTTGTTGATACAACCAAAAAATGATAATTACACCCATAAATTGATAATGATGACACCGAATTTAACTATAACGCTCTGATCATAGTCAGACCAACATTGCTACGACCCGTATTCGCACCGACAC | 2.11 ± 0.27 | -1.42 ± 0.27
12 | ACATTTGTTGATACAACCATAAAATGATAATTACTCTGATCATCACCCATAAATTGATAATTATCAGTGGGTATTTAACTATAACGAGTCAGACCAACATTGCTACGACCCGTATTCGCACCGACAC | -0.42 ± 0.11 | -3.53 ± 0.084
13 | ACATTTGTTGATACAACCATAAAATGATAATTACACCCATAAATTGATAATTATCACACCCATAAATTGATATTGCCTCTGATCATAGTCTTGTGAGCGGATAACAAAGACCAACATGCACCGACAC | -0.0553 ± 0.18 | 0.141 ± 0.16
14 | ACATTTCTGGATACAACCATAAAATGATAATTACACCCATAAATTCATCATTATCACACCCAATTTAACTATAACGCTCTGATCATAGTCAGACCAACATTGCTACGACCCGTATTCGCACCGACAC | -0.104 ± 0.069 | -3.59 ± 0.54
15 | ACATTTGTTGATACCACCATAAAATGATAATTCCACCCCTAAATTGATAATTATCACACCCAATTTAACTATAACGCTCTGATCATAGTCAGACCAACATTGCTACGACCCGTATTCGCACCGACAC | 0.417 ± 0.16 | -2.92 ± 0.31
16 | ACATTTGTTGATACAACCATAAAATGATAACACCCATAAATTGATAATTATCACACCCATAAATTGATATTGCCTCTGATCATAGTCAGACCAACATTGCTACGACCCGTATTCGCACCGACACTGA | -1.25 ± 0.2 | -3.99 ± 0.2
17 | ACATTTCTGGATACAACCATAAAATGATAATTACACCCATAAATTCATAATTATCACACCCAATTTAACTATAACGCTCTGATCATAGTCAGACCAACATTGCTACGACCCGTATTCGCACCGACAC | -0.65 ± 0.075 | -3.39 ± 0.26
18 | ACATTTGTTGATACAACCATAAAATGATAATTACAACCATATATTGATATCTCTCACAACCATAAAATGATAATTACTCTGATCATAGTCAGACCAACATTGCTACGACCCGTATTCGCACCGACAC | 0.146 ± 0.15 | -0.257 ± 0.18

Row | Sequence | relative integration efficiency (log2) [1] | relative integration efficiency (log2) [2]
19 | ACATTTGTTGATACAACCATAAGTTGATATTTTCAACCATATATTGATATCTCTCACACCCATAAATTGATAATTACTCTGATCATAGTCAGACCAACATTGCTACGACCCGTATTCGCACCGACAC | 0.134 ± 0.11 | -0.464 ± 0.15
20 | ACATTTGTTGATACAACCATAAAGTGATATTTACAACCATAAGTTGATATTTTTCACACCCATAAATTGATAATTACTCTGATCATAGTCAGACCAACATTGCTACGACCCGTATTCGCACCGACAC | 0.0675 ± 0.11 | -0.192 ± 0.21
21 | ACATTTGTAGATAAAACCATACGTTGATTTTACGAAACCATACGCTGAAATAATCACACCCATAAATTGATATTGCCTCTGATCATAGTCAGACCAACATTGCTACGACCCGTATTCGCACCGACAC | -5.26 ± 0.89 | -6.57 ± 0.4
22 | ACATTGGTTGATACAACCATAAAATGATAATTACACCCATAAATTCATAATTATCACACCCAATTTAACTATAACGCTCTGATCATAGTCAGACCAACATTGCTACGACCCGTATTCGCACCGACAC | -5.532 ± 0.042 | -6.39 ± 0.064
23 | ACATTTGTTGATACAACCATAAAATGATAATTACACCCATAAATTGATAATTATCACACCCATAAATTGATATTGCAGCTGATCATAGTCAGACCAACATTGCTACGACCCGTATTCGCACCGACAC | 0.0166 ± 0.64 | 0.131 ± 0.028
24 | ACATTTGTTGATACAACCATAAAATGATAATTACACCCATAAATTGATAATTATCACACCCATAAATTGATATTGCCTCTGTTGACGGCTAGCTCAGTCCTAGGTATAGTGCTAGCCGCACCGACAC | -0.517 ± 0.3 | -0.43 ± 0.065
25 | ACATTTGTTGATCAACCATAAAATGATAATTACACCCATAAATTGATAATTATCACACCCATAAATTGATATTGCCTCTGATCATAGTCAGACCAACATTGCTACGACCCGTATTCGCACCGACACT | -4.42 ± 0.092 | -8.26 ± 0.75
26 | ACATTTGTTCATACAACCATAAAATGATAATTACACCCATAAATTGATCATTATCACCCCCAATTTAACTATAACGCTCTGATCATAGTCAGACCAACATTGCTACGACCCGTATTCGCACCGACAC | 0.514 ± 0.2 | -1.59 ± 0.39
27 | ACATTTGTTGATACAACCATAAAATGATAATTACAACCATAAAGTGATATTTATCACACCCATAAATTGATATTGCCTCTGATCATAGTCAGACCAACATTGCTACGACCCGTATTCGCACCGACAC | -0.0327 ± 0.15 | -0.128 ± 0.23
28 | ACATTTGTTGATACAACCATAAAATCATAATTACCCCCATCAATTGATAATTATCCCACCCAATTTAACTATAACGCTCTGATCATAGTCAGACCAACATTGCTACGACCCGTATTCGCACCGACAC | -1.33 ± 0.49 | -5.51 ± 0.13
29 | ACATTTGTTGATACAACCATAAAATCATCATTACACCCATAAATTGATAATTATCCCACCCCATTTAACTATAACGCTCTGATCATAGTCAGACCAACATTGCTACGACCCGTATTCGCACCGACAC | 0.992 ± 0.31 | -2.81 ± 0.49
30 | ACATTTGTTGATACAACCATATATTGATATCTCCAACCATAAGTTGATATTTTTCACAACCATAAGTTGATATTTTCTCTGATCATAGTCAGACCAACATTGCTACGACCCGTATTCGCACCGACAC | -0.31 ± 0.26 | -0.0557 ± 0.027
31 | ACATTTGTTGATACACCCATAAATTGATAATTACAACCATAAGTTGATATTTTTCACACCCATAAATTGATAATTACTCTGATCATAGTCAGACCAACATTGCTACGACCCGTATTCGCACCGACAC | 0.055 ± 0.036 | -0.622 ± 0.16
32 | ACATTTGCTGATACTACCATATAATGATAATAACACCCCTAAAATGATAATTATCACACCCAATTTAACTATAACGCTCTGATCATAGTCAGACCAACATTGCTACGACCCGTATTCGCACCGACAC | -2.64 ± 0.76 | -4.12 ± 0.62
33 | ACATTTGTTGATACAACCATAAAATGATAATTACAACCATAAAGTGATATTTATCACAACCATAAAATGATAATTACTCTGATCATAGTCAGACCAACATTGCTACGACCCGTATTCGCACCGACAC | -0.0691 ± 0.38 | -0.258 ± 0.14
34 | ACATTTGTTGATACAACCATAAAATGATATAATCACCCATAAATTGATAATTATCACACCCATAAATTGATATTGCCTCTGATCATAGTCAGACCAACATTGCTACGACCCGTATTCGCACCGACAC | -0.788 ± 0.69 | -0.575 ± 0.093
35 | ACATTTGTTGATACAACCATAAAATGATAATTACACCCATAAATTGATAATTATCACACCCATAAATTGATATTGCCTCTGATCATAGTCAAACTGTATTTATATACAGTTGGACCAGCACCGACAC | 0.414 ± 0.18 | 0.00825 ± 0.2
